According to US20210220471A1, “METHODS OF USING PHARMACOLOGIC INHIBITORS OF TYPE 2 CYTOKINE SIGNALING TO TREAT OR PREVENT PANCREATIC CANCER” (Memorial Sloan Kettering Cancer Center, priority 2018, published 2021):
“Also recorded” adds a separate entry of the source.

B1: rIl-33: murine recombinant Il-33 (#580504, R&D Systems) (protein, UniProt Q8BVZ5 1-266, looked up)
Interleukin-33: MRPRMKYSNSKISPAKFSSTAGEALVPPCKIRRSQQKTKEFCHVYCMRLRSGLTIRKETSYFRKEPTKRYSLKSGTKHEENFSAYPRDSRKRSLLGSIQAFAASVDTLSIQGTSLLTQSPASLSTYNDQSVSFVLENGCYVINVDDSGKDQEQDQVLLRYYESPCPASQSGDGVDGKKLMVNMSPIKDTDIWLHANDKDYSVELQRGDVSPPEQAFFVLHKKSSDFVSFECKNLPGTYIGVKDNQLALVEEKDESCNNIMFKLSKI
B2: recombinant IL-4: recombinant IL-4 cytokine (protein, UniProt P05112 25-153, looked up)
Interleukin-4: HKCDITLQEIIKTLNSLTEQKTLCTELTVTDIFAASKNTTEKETFCRAATVLRQFYSHHEKDTRCLGATAQQFHRHKQLIRFLKRLDRNLWGLAGLNSCPVKEANQSTLENFLERLKTIMREKYSKCSS

Columns and labels:
[1] = tested on: mutant Kras pancreatic organoids; experiment: Growth of mutant Kras pancreatic organoids with recombinant IL-4 / IL-13 (Cell Titer Glo); assay type: cell-based, mouse; details: pre-malignant mutant Kras G12D; for proliferation (Cell Titer Glo): 6-day growth; for proliferation (Cell Titer Glo) after cytokine pre-treatment: pre-treatment with the cytokines during 2 weeks
Description: Isolation, culture and genetic manipulation of pancreatic organoids. To isolate untransformed ductal organoids for the transplantable PDAC tumorigenesis model, normal pancreas from LSL-KrasG12D mice (pure Bl/6N background) minced and digested with 0.012% collagenase XI (C9407, Sigma-Aldrich) and 0.012% Dispase (17105041, Life Technologies) in HBSS with Mg^2+ and Ca^2+ (14025076, Thermo Fisher Scientific) at 37° C. for a maximum of 30 mins. The material was further digested with TrypLE (GIBCO) for 5 min at 37° C., washed twice with DMEM/F12 (Life Technologies) supplemented with 2 mM glutamine and penn-strep, embedded in growth factor reduced matrigel (Corning), and cultured in complete medium, as described in Boj et al 2014. For activation of mutant Kras, organoids haroburing the LSL-KrasG12D allele were transduced with Ad-mCherry-Cre (Vector Biolabs), and Cherry^+ cells were sorted from single cell organoid suspension by flow cytometry 36h thereafter. Resulting clones were assessed for LSL-KrasG12D recombination by genotyping PCR in genomic DNA using the following primers: 5′ gtc ttt ccc cag cac agt gc 3′ (SEQ ID NO: 19), 5′ ctc ttg cct acg cca cca get c 3′ (SEQ ID NO: 20), and 5′ agc tag cca cca tgg ctt gag taa gtc tgc a 3′ (SEQ ID NO: 21). Validated Cre-recombined clones were then subjected to CRISPR-based inactivation of Trp53 using the PX458 vector (Addgene #48138) and gRNA […] sequence (SEQ ID NO: 22). PX458-sgTrp53 was transduced into organoids by transient transfection using the spinoculation method previously described (O'Rourke et al., 2017), with the modification of using the Effectene transfection reagent (Qiagen). PX458-sgTrp53 introduced cells were sorted by GFP positivity with flow cytometry 36h post-transfection. p53 null status of targeted clones was validated by western blot, using anti-p53 antibody (CMS, Leica Microsystem) and anti-β-actin-peroxidase antibody (Sigma-Aldrich) as normalization control.
This activation was specific (i.e. not observed for many other cytokine receptors, nor during normal pancreas regeneration) and is associated with the emergence of multiple de novo ATAC peaks (FIG. 14B). Preliminary gain-of-function experiments in mutant Kras pancreatic organoids indicate that these druggable Th2 cytokine receptors are functional and modulate organoid growth in vitro (FIG. 14C).

[2] = tested on: Kras mutant (KC-GEMM) mice; experiment: Recombinant Il-33 treatment of Kras mutant (KC-GEMM) mice; assay type: in vivo, mouse; details: for expression of cell fate / PanIN markers (Agr2, Muc6, Dclk1, Cpa1, Sox9) in mKate2+ pancreatic epithelial cells: KC mice, qRT-PCR, 21 days after treatment; for mutant KRAS-driven tumorigenesis / mucinous PanIN lesions (H&E, Alcian Blue, mKate2) / expansion of Dclk1+ cancer stem cells (Dclk1 immunofluorescence): KC-GEMM mice, 5 consecutive days; for mutant KRAS-driven tumorigenesis / mucinous PanIN lesions (H&E, Alcian Blue, mKate2): 1 ug/mouse i.p. once daily, analyzed 21 days thereafter, vs vehicle (PBS); for expansion of Dclk1+ cancer stem cells (Dclk1 immunofluorescence): 1 ug/mouse, day 21 post-treatment
Description: (§1) To compare the effects of tissue injury in the transcriptional and chromatin accessibility landscapes of mutant Kras-expressing or Kras wild-type pancreatic epithelial cells, KC;RIK (p48-Cre;RIK;LSLKrasG12D) or C;RIK (p48-Cre;RIK) male mice were treated with 8 hourly intraperitoneal injections of 80 μg/kg caerulein (Bachem) or PBS for 2 consecutive days, using littermates when possible. To characterize invasive disease, pancreatic ductal adenocarcinoma (PDAC) cells were isolated from cancer lesions arising in autochthonous transgenic models (KPflC;RIK (p48Cre;RIK;LSL-KrasG12D;p53fl/^+) that were macro-dissected away from pre-malignant tissue. As an orthogonal approach, C57Bl/6 female mice (Harlan) were subjected to for orthotopic transplantations with syngeneic ductal organoids harboruing mutant Kras and inactivated Trp53 gene (see below). Prior to transplantation, organoid cultures were dissociated with TrypLE (Gibco) after mechanical dissociation by pipetting and 1-2×10^5 cells in serum-free advanced DMEM/F12 (Life Technologies) supplemented with 2 mM glutamine and penn-strep were mixed 1:1 with growth factor reduced matrigel (Corning) and injected into the exposed pancreas of 8-10 weeks old C57B16/N mice using a Hamilton syringe fitted with a 26 gauge needle. For treatment with recombinant Il-33, 5 weeks-old C or KC mice were injected intraperitoneally once daily doses with 1 ug of murine recombinant Il-33 (#580504, R&D Systems) or vehicle (PBS) for 5 consecutive days.
Immunofluorescence, immunohistochemistry and histological analyses. Tissues were fixed overnight in 10% neutral buffered formalin (Richard-Allan Scientific), embedded in paraffin and cut into 5 μm sections. Slides were heated for 30 min at 55° C., deparaffinized, rehydrated with an alcohol series and subjected to antigen retrieval with citrate buffer (Vector Laboratories Unmasking Solution, H-3300) for 25 min in a pressure cooker set on high. Sections were treated with 3% H2O2 for 10 min followed by a wash in dionized water (for immunohistochemistry only), washed in PBS, then blocked in PBS/0.1% Triton X-100 containing 1% BSA. Primary antibodies were incubated overnight at 4° C. in blocking buffer. The following primary antibodies were used: mKate2 (Evrogen, AB233), GFP (ab13970, Abcam and 2956S, Cell Signaling Technology), Brd4 (HPA015055, Sigma-Aldrich), Myc (ab32072, Abcam), Cpa1 (R&D, AF2765), Clusterin (SCBT sc-6419), SOX9 (Millipore AB553), Amylase (sc-31869, Santa Cruz), Krt19 (Troma III, Developmental Studies Hybridoma Bank) and Il-33 (AF3626, R&D). For mKate2, GFP and cMyc immunohistochemistry, Vector ImmPress HRP kits and ImmPact DAB (Vector Laboratories) were used for secondary detection. Tissues were then counterstained with Haematoxylin or when indicated Alcian blue (pH 2.5) and 0.1% Nuclear Fast Red Solution, dehydrated and mounted with Permount (Fisher). The immunohistochemistry detection of Brd4 was performed at the Molecular Cytology Core Facility of Memorial Sloan Kettering Cancer Center using Discovery XT processor (Ventana Medical Systems-Roche). The tissue sections were blocked for 30 min in 10% normal goat serum, 2% BSA in PBS. A rabbit polyclonal anti-Brd4 antibody (HPA015055, Sigma-Aldrich) was used in 1 ug/ml (1:100) concentrations. The incubation with the primary antibody was done for 6 hours, followed by 60 minutes incubation with biotinylated goat anti-rabbit IgG (PK610, Vector labs) in 5.75 ug/mL concentration. Blocker D, Streptavidin-HRP and DAB detection kit (760-124, Ventana Medical Systems-Roche) were used according to the manufacturer instructions. Slides were counterstained with Hematoxylin (760-2021, Ventana), Bluing Reagent (760-2037, Ventana) and coverslipped with Permount (Fisher Scientific). […]

[3] = tested on: Kras-wild type (C-GEMM) mice; experiment: Recombinant Il-33 treatment of Kras wild-type (C-GEMM) mice; assay type: in vivo, mouse; details: 21 days after treatment; for pancreas histology (H&E, Alcian Blue): same dosing
Description: as §1
Immunofluorescence, immunohistochemistry and histological analyses. Tissues were fixed overnight in 10% neutral buffered formalin (Richard-Allan Scientific), embedded in paraffin and cut into 5 μm sections. Slides were heated for 30 min at 55° C., deparaffinized, rehydrated with an alcohol series and subjected to antigen retrieval with citrate buffer (Vector Laboratories Unmasking Solution, H-3300) for 25 min in a pressure cooker set on high. Sections were treated with 3% H2O2 for 10 min followed by a wash in dionized water (for immunohistochemistry only), washed in PBS, then blocked in PBS/0.1% Triton X-100 containing 1% BSA. Primary antibodies were incubated overnight at 4° C. in blocking buffer. The following primary antibodies were used: mKate2 (Evrogen, AB233), GFP (ab13970, Abcam and 2956S, Cell Signaling Technology), Brd4 (HPA015055, Sigma-Aldrich), Myc (ab32072, Abcam), Cpa1 (R&D, AF2765), Clusterin (SCBT sc-6419), SOX9 (Millipore AB553), Amylase (sc-31869, Santa Cruz), Krt19 (Troma III, Developmental Studies Hybridoma Bank) and Il-33 (AF3626, R&D). For mKate2, GFP and cMyc immunohistochemistry, Vector ImmPress HRP kits and ImmPact DAB (Vector Laboratories) were used for secondary detection. […]

Molecule	proliferation (Cell Titer Glo) [1]	proliferation (Cell Titer Glo) after cytokine pre-treatment [1]	expression of cell fate / PanIN markers (Agr2, Muc6, Dclk1, Cpa1, Sox9) in mKate2+ pancreatic epithelial cells [2]	expression of cell fate / PanIN markers (Agr2, Muc6, Dclk1, Cpa1, Sox9) in mKate2+ pancreatic epithelial cells ([2]; listed as recombinant IL-33)	mutant KRAS-driven tumorigenesis / mucinous PanIN lesions (H&E, Alcian Blue, mKate2) [2]	mutant KRAS-driven tumorigenesis / mucinous PanIN lesions (H&E, Alcian Blue, mKate2) ([2]; listed as recombinant IL-33)	expansion of Dclk1+ cancer stem cells (Dclk1 immunofluorescence) ([2]; listed as Recombinant IL-33)	expansion of Dclk1+ cancer stem cells (Dclk1 immunofluorescence) ([2]; listed as recombinant IL-33)	expression of cell fate / PanIN markers in mKate2+ pancreatic epithelial cells [3]	expression of cell fate / PanIN markers in mKate2+ pancreatic epithelial cells ([3]; listed as recombinant IL-33)	pancreas histology (H&E, Alcian Blue) [3]	pancreas histology (H&E, Alcian Blue) ([3]; listed as recombinant IL-33)
IL-13: recombinant IL-13 cytokine	pro-proliferative effects	further enhanced										
B1			selective effects	accelerates mutant KRAS-driven tumorigenesis	sufficient to trigger many of the tumor-promoting outputs of injury in the mutant Kras setting; also recorded: accelerated ADR with development of mucinous lesions	promoted tumorigenesis; also recorded: accelerates mutant KRAS-driven tumorigenesis; also recorded: enhanced tumorigenesis	sufficient to drive expansion of Dclk1^+ cancer stem cells in vivo	cancer stem cell expansion	no detectable effects	no effect	no detectable effects; also recorded: retain normal architecture	no effect
B2	pro-proliferative effects	further enhanced										
